IntAct's records for PubMed 36096339

Legend:
1433b_human YWHAB = 1433b_human YWHAB (UniProt P31946)
1433g_human YWHAG = 1433g_human YWHAG (UniProt P61981)
1433e_human YWHAE = 1433e_human YWHAE (UniProt P62258)
1433t_human YWHAQ = 1433t_human YWHAQ (UniProt P27348)
1433z_human YWHAZ = 1433z_human YWHAZ (UniProt P63104)
1433f_human YWHAH = 1433f_human YWHAH (UniProt Q04917)
Sequence of UniProt Q04917 (Q04917 whole entry): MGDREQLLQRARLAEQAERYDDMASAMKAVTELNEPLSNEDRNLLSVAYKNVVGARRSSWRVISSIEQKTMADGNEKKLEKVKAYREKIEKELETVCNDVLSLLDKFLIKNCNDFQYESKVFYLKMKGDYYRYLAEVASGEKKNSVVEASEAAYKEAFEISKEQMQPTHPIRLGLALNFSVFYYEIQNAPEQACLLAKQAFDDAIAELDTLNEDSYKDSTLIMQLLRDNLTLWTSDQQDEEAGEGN

Sequence of UniProt P27348 (P27348 whole entry): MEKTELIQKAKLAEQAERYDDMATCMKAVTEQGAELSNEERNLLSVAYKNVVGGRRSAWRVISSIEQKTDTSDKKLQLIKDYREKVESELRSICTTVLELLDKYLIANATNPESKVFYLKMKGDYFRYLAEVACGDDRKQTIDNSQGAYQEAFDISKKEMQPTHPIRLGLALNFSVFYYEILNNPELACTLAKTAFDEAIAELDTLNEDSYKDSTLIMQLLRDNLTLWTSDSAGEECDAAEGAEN
Sequence of UniProt P61981 (P61981 whole entry): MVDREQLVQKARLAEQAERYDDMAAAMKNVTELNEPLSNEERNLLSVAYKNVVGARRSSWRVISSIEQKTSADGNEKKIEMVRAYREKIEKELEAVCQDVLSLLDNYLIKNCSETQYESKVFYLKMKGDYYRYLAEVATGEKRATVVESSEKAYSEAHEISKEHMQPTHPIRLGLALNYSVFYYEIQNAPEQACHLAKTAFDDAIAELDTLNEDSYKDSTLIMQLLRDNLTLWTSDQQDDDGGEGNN
Sequence of UniProt P31946 (P31946 whole entry): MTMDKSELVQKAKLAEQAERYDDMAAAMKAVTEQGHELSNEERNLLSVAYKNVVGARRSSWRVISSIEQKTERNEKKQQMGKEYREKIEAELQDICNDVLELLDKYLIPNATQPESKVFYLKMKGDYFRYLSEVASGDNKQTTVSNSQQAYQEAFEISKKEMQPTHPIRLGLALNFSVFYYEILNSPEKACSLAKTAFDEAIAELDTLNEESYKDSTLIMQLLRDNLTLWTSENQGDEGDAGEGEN
Sequence of UniProt P62258 (P62258 whole entry): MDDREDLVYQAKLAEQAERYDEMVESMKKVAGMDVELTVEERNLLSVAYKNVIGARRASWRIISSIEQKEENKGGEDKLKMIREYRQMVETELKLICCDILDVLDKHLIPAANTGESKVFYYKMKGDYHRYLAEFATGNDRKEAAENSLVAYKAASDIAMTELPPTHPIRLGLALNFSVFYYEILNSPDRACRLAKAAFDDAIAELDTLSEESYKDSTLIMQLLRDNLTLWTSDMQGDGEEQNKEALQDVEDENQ
Sequence of UniProt P63104 (P63104 whole entry): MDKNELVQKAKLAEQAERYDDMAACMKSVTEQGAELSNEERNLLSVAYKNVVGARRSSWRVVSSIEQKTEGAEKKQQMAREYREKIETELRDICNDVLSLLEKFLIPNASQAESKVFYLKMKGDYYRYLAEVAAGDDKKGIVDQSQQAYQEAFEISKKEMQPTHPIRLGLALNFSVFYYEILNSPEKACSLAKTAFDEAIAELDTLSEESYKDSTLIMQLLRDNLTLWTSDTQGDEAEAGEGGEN

effect of a mutation on the interaction (1433b_human YWHAB): decreasing interaction strength
effect of a mutation on the interaction (1433g_human YWHAG): decreasing interaction strength
effect of a mutation on the interaction (1433e_human YWHAE): with no effect
effect of a mutation on the interaction (1433t_human YWHAQ): decreasing interaction strength
effect of a mutation on the interaction (1433z_human YWHAZ): decreasing interaction strength
effect of a mutation on the interaction (1433f_human YWHAH): decreasing interaction strength
Substance: Spatacsin (Homo sapiens), Q96JI7 S1955A
